Results taken from patent US20150166606A1 (RA PHARMACEUTICALS, published 2015).
Numbered stars: 1 amine (or outer) side, 2 acyl side, 3 side chain; on linkers, the order of the positions; unused ones are H or OH. Bridge positions count the residues as written; N and C are the ends. Square brackets hold non-standard residues; d marks the D form. Primed or numbered codes have the meaning given here. Ends that are not written are not given here. ABP = 2-amino-3-(5-bromothiophen-2-yl)propanoic acid, O=C([C@H](Cc1ccc(Br)s1)N[*:1])[*:2]; mXylyl = xylyl linker from dibromoxylene joining the two cysteines; Trp(5-Cl) = N[C@@H](Cc1c[nH]c2ccc(Cl)cc12)C(=O)O; des‑NH2 = missing amino-terminal amine group; Phe(3-Cl) = N[C@@H](Cc1cccc(Cl)c1)C(=O)O; Phe(4-Cl) = N[C@@H](Cc1ccc(Cl)cc1)C(=O)O; Phe(4-amidino)′ = not defined here; Igl = N[C@H](C(=O)O)C1Cc2ccccc2C1; NMeR = CN[C@@H](CCCNC(=N)N)C(=O)O; dPhg = N[C@@H](C(=O)O)c1ccccc1; Chg = N[C@H](C(=O)O)C1CCCCC1; Phg = N[C@H](C(=O)O)c1ccccc1; Tle = CC(C)(C)[C@H](N)C(=O)O; Dab = NCC[C@H](N)C(=O)O; Nva = CCC[C@H](N)C(=O)O

What follows are binders tested against T1, Activated human plasma kallikrein (Enzyme Research Laboratories, HPKa 1303) (human, UniProt P03952 20-638) (assay: cell-based or functional assay).
T1 sequence (P03952 20-638 limits assumed): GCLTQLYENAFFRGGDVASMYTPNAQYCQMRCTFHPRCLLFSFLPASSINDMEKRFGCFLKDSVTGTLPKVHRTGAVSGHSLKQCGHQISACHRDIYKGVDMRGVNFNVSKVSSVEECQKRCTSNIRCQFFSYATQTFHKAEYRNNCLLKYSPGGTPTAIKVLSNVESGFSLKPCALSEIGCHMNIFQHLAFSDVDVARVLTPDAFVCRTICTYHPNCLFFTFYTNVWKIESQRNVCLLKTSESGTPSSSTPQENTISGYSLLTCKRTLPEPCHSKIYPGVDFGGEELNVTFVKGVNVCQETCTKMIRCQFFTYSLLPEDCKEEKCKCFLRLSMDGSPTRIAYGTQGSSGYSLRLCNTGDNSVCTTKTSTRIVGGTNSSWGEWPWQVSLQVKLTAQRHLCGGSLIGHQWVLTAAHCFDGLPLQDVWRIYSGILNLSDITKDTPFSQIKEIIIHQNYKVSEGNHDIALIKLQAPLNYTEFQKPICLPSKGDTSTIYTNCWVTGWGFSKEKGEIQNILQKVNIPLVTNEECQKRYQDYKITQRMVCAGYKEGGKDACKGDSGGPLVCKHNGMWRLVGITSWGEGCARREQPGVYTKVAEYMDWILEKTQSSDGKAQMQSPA

| Avg. IC50 [nM] | Binder |
| --- | --- |
| 127 | Ac-CNYWAPWTEC-NH2 (cysteine pairing not given here) [R2131] |
| > 100000 | Ac-SPWTECSA-NH2 [R2120] |
| 9.2 | MCNYWSPWTSEIC-NH2 (linker 2-13 via mXylyl) [R2109] |
| 4.4 | MCNYWSPWTSEIC-NH2 (cysteine pairing not given here) [R2105] |
| 4110 | Ac-CNYASPWTEC-NH2 (cysteine pairing not given here) [R2132] |
| 144 | Ac-CNYWSPWT-NH2 [R2135] |
| 10.6 | Ac-CNYWSPWTECSA-NH2 (linker 1-10 via mXylyl) [R2125] |
| 4.1 | MCNYWSPWTECSA-NH2 (linker 2-11 via mXylyl) [R2108] |
| > 100000 | Ac-WSPWTECSA-NH2 [R2119] |
| 30.4 | MCNYWSPWTSEI-NH2 [R2122] |
| > 17300 | MCNYWSP-NH2 [R2115] |
| 2.5 | Ac-CNYWSPWTAC-NH2 (cysteine pairing not given here) [R2128] |
| 25.5 | MCNYWSPWTSE-NH2 [R2123] |
| 1.4 | Ac-CNYWSPWTEC-NH2 (cysteine pairing not given here) [R2126] |
| 39.1 | Ac-CNAWSPWTEC-NH2 (cysteine pairing not given here) [R2133] |
| 3.5 | Ac-CNYWSPWTECSA-NH2 (cysteine pairing not given here) [R2116] |
| 86.7 | Ac-CNYWSPWTC-NH2 (cysteine pairing not given here) [R2134] |
| 54.6 | MCNYWSPWTS-NH2 [R2124] |

| Avg. IC50 [nM] | Binder |
| --- | --- |
| 3.5 | MCNYWSPWTECS-NH2 (cysteine pairing not given here) [R2110] |
| 10300 | Ac-PWTECSA-NH2 [R2121] |
| 374 | Ac-NYWSPWT-NH2 [R2106] |
| 65.3 | Ac-[Nva]NYWSPWTAC-NH2 (SMILES CCC[C@H](NC(C)=O)C(=O)N[C@@H](CC(N)=O)C(=O)N[C@@H](Cc1ccc(O)cc1)C(=O)N[C@@H](Cc1c[nH]c2ccccc12)C(=O)N[C@@H](CO)C(=O)N1CCC[C@H]1C(=O)N[C@@H](Cc1c[nH]c2ccccc12)C(=O)N[C@H](C(=O)N[C@@H](C)C(=O)N[C@@H](CS)C(N)=O)[C@@H](C)O) [R2139] |
| 43.9 | Ac-NYWSPWTECSA-NH2 [R2117] |
| > 100000 | Ac-YWSPWTECSA-NH2 [R2118] |
| 5300 | Ac-CNYWSPATEC-NH2 (cysteine pairing not given here) [R2130] |
| 57.2 | Ac-CNYWSAWTEC-NH2 (cysteine pairing not given here) [R2137] |
| 3.8 | MCNYWSPWTEC-NH2 (cysteine pairing not given here) [R2111] |
| 88.8 | MCNYWSPWT-NH2 [R2113] |
| 12.3 | Ac-CNYWSPWAEC-NH2 (cysteine pairing not given here) [R2129] |
| 2.4 | MCNYWSPWTE-NH2 [R2112] |
| 6.1 | Ac-CNYWSPWTAC-NH2 (linker 1-10 via mXylyl) [R2136] |
| 35.6 | Ac-CNYWSPWTEA-NH2 [R2127] |
| 349 | MCNYWSPW-NH2 [R2114] |
| 22.3 | Ac-ANYWSPWTEC-NH2 [R2138] |
| 128 | MSNYWSPWTESSA-NH2 [R2107] |

Biological target: T1, Activated human plasma kallikrein …
Assay: cell-based or functional assay
Remark: another data set of the same source

| Avg. IC50 [nM] | Binder |
| --- | --- |
| > 75000 | {des‑NH2}-CP[Phg]C[Phe(4-Cl)][Tle]-NH2 (linker 1-4 via mXylyl) [R2205] |
| > 75000 | {des‑NH2}-CP[Phg]C[Phe(3-Cl)][Tle]-NH2 (linker 1-4 via mXylyl) [R2207] |
| 4000 | {des‑NH2}-CP[Chg]CR[Tle]-OH (linker 1-4 via mXylyl) [R2214] |
| 401 | {des‑NH2}-CP[Phg]C-{4‑(aminomethyl)benzimidamide} (linker 1-4 via mXylyl) [R2221] |
| > 75000 | {des‑NH2}-CP[dPhg]C[Phe(4-Cl)][Tle]-NH2 (linker 1-4 via mXylyl) [R2206] |
| > 75000 | {des‑NH2}-CP[Phg]C[Trp(5-Cl)][Tle]-NH2 (linker 1-4 via mXylyl) [R2209] |
| 114 | {des‑NH2}-CP[dPhg]CR[Tle]L[NMeR]YSE-NH2 (linker 1-4 via mXylyl) [R2217] |
| > 75000 | {des‑NH2}-CP[dPhg]C[Trp(5-Cl)][Tle]-NH2 (linker 1-4 via mXylyl) [R2210] |
| 3 | {des‑NH2}-CP[Igl]CR[Tle]-NH2 (bridge 1-4; not fully specified (residue 1, bridges); printed as [mXylyl(1,4)](des-NH2)C-P-Ind-CR-Tbg-NH2) [R2218] |
| 0.913 | {des‑NH2}-CP[Phg]CR[Tle]L[NMeR]YSE-NH2 (linker 1-4 via mXylyl) [R2216] |
| 6390 | {des‑NH2}-CP[Phg]C[Phe(4-amidino)′]V-NH2 (linker 1-4 via mXylyl) [R2215] |
| > 100000 | {des‑NH2}-CP[dPhg]C[ABP][Tle]-NH2 (bridge 1-4; not fully specified (residue 1, bridges); printed as [mXylyl(1,4)](des-NH2)C-P-(D-Phg)-C-ABP-Tbg-NH2) [R2220] |
| > 100000 | {des‑NH2}-CP[dPhg]C[Dab][Tle]-NH2 (bridge 1-4; not fully specified (residue 1, bridges); printed as [mXylyl(1,4)](des-NH2)C-P-(D-Phg)-C-Dab-Tbg-NH2) [R2212] |
| 462 | {des‑NH2}-CE(PEG 40 kDa)[Chg]CR[Tle]-NH2 (linker 1-4 via mXylyl) [R2213] |
| > 100000 | {des‑NH2}-CP[Phg]C[ABP][Tle]-NH2 (bridge 1-4; not fully specified (residue 1, bridges); printed as [mXylyl(1,4)(des-NH2)C-P-Phg-C-ABP-Tbg-NH2) [R2219] |
| > 75000 | {des‑NH2}-CP[dPhg]C[Phe(3-Cl)][Tle]-NH2 (linker 1-4 via mXylyl) [R2208] |
| > 75000 | {des‑NH2}-CP[Phg]C[Dab][Tle]-NH2 (linker 1-4 via mXylyl; not fully specified (residue 1); printed as [mXylyl(1,4)](des-NH2)C-P-Phg-C-Dab-Tbg-NH2) [R2211] |
